Experimental data published in article doi:10.1101/2022.01.20.477176v3.

Tests used:
Assay in all cases: purified protein
purified protein [1] = substrate: C=C(C)C(=O)O; settings: 150 μM NADH (saturating), pH 6.5
purified protein [2] = substrate: C=CC(=O)O; settings: 150 μM NADH (saturating), pH 6.5
purified protein [3] = substrate: NC(=O)C1=CN([C@@H]2O[C@H](COP(=O)(O)OP(=O)(O)OC[C@H]3O[C@@H](n4cnc5c(N)ncnc54)[C@H](O)[C@@H]3O)[C@@H](O)[C@H]2O)C=CC1; settings: 1 mM acrylate, pH 6.5

B1: ARD (NADH:acrylate oxidoreductase) (Vibrio harveyi) (protein)
chain: MAQLVDEIVFQSGVKLHNRIVMAPMTIQSAFFDGGVTQEMINYYAARSGGAGAIIVESAFVENYGRAFPGALGIDTDSKIAGLTKLADAIKAKGSKAILQIYHAGRMANPEFNGGHQPISASPVAALRDNAETPLEMTKEQIEEMIERFGDAVNRAILAGFDGVEIHGANTYLIQQFFSPHSNRRNDKWGGNIERRTSFPLAVLAKTKQVAEQHNKSDFIIGYRFSPEEIEQPGIRFDDTMFLLDKLATHGLDYFHFSMGSWLRNSIVTPEDQEPLIDKYRKLQSESVAKVPVIGVGGIAQRKDAENALEQGYDMVSVGKGYLVEPTWANKALNDETCAEFADIAQQEALQIPTPLWEIMDYMIVDSAAEALKHQRIKELQNVPIKFNSGEYTAYGRGHNGDLPVTVTFSEDKILDIVVDSSKESDGIANPAFERIPQQILDGQTLNIDVISGATVSSQAVLDGVSNAVDLAGGNSEALRCKAKEAVAWSSKTIEETVDIVVVGGGGAGLSATLTALDKGKSVVLLEKFPAIGGNTVRTGGWVNAAEPKWQGDFPALPGEKETLMLLAKTAESEFSGEYLEDFKVLKAQLDGYFTDLENGKQYLFDSVELHRIQTYLGGKRTDLNGESIYGQYDLVETLTSRSMESIDWLSEKGIDFDRSVVEIPVGALWRRAHKPKRPKGVEFIDKLSKRIQEQNGRIITDTRATDLMVDNGKVVGIKAVQADGTELILHVNHGVVLASGGFGANTQMIKKYNTYWKEIADDIKTTNSPALVGDGIEIGEKAGAELVGMGFVQLMPVGDPKSGALLTGLIVPPENFVFVNKQGKRFVDECGSRDVLSEAFFDNGGLIYMIADENIRQTAANTSDETIEREIKEGIIIQADTLEELAEKIGVPTQELTNTIAQYNACVDAGQDPEFHKSAFGLKVEKAPFYATPRQPSVHHTMGGLKIDTKARVIGKDGEVIQGLYAAGEVTGGIHAGNRLGGNALIDIFTYGRIAGESASDLV
Purified protein [1]
  Km: 690 ± 140 µM
  kcat: 2.5 ± 0.2 s⁻¹
Purified protein [2]
  Km: 16 ± 1 µM
  kcat: 19 ± 1 s⁻¹
Purified protein [3]
  Km: 14 ± 1 µM
